Assay results from US20180298101A1 (published 2018).
Like-named read-outs stand apart in the source and are kept apart here. Non-standard residues stand in square brackets, D forms with d. No end group written: not given here. pY = N[C@@H](Cc1ccc(OP(=O)(O)O)cc1)C(=O)O

B1: JAK1-Y1034 phosphopeptide with an alanine substitution at the -3 position (peptide)
peptide: AIETAKE[pY]YTVKDDRD
B2: IL-2Rβ cytoplasmic domain phosphopeptide (Tyr361 phosphorylated) (peptide)
peptide: YDP[pY]SEEDPDEG
B3: JAK1-Y1034 phosphopeptide with an alanine substitution at the +3 position (peptide)
peptide: AIETDKE[pY]YTAKDDRD
B4: JAK3 activation loop phosphopeptide (Tyr980 phosphorylated) (peptide)
peptide: LLPLDKDYYVVREPGQ
modifications: not fully specified (residue 8)
B5: IL-2Rβ cytoplasmic domain phosphopeptide (Tyr355 phosphorylated) (peptide)
peptide: CQV[pY]FTYDPYSE
B6: IL-2Rβ cytoplasmic domain phosphopeptide (Tyr392 phosphorylated) (peptide)
peptide: DDA[pY]CTFPSRDD
B7: JAK1 activation loop phosphopeptide (Tyr1034 phosphorylated) (peptide)
peptide: AIETDKE[pY]YTVKDDRD
B8: JAK1-Y1034 phosphopeptide with an alanine substitution at the +5 position (peptide)
peptide: AIETDKE[pY]YTVKADRD

Assays:
Experiment in all cases: ITC
[1] = molecular target: T1, human CIS lacking both the N-terminal region (residues 1-66) and the PEST motif (ΔNT/ΔPEST) in trimeric … (UniProt Q9NSE2 67-258; Q15370 1-118; Q15369 17-112)
[2] = molecular target: T2, hCIS-SH2-BC complex (ternary complex of human GST-CIS-SH2 construct, residues 66-258 with PEST region 174-202 … (UniProt Q9NSE2 66-258; Q15370 1-118; P83940 17-112)
[3] = molecular target: T2, hCIS-SH2-BC complex (ternary complex of …); remark: listed apart in the source
[4] = molecular target: human CIS lacking the PEST motif (ΔPEST) in trimeric complex with elongin B and elongin C (UniProt Q9NSE2 1-258; Q15370 1-118; Q15369 17-112)
[5] = molecular target: T1, human CIS lacking both the N-terminal …; remark: listed apart in the source
[6] = molecular target: human full-length CIS in trimeric complex with elongin B and elongin C (UniProt Q9NSE2 1-258; Q15370 1-118; Q15369 17-112)

Binder	Kd [1] [nM]	Kd [2] [nM]	Kd [3] [nM]	other results
B1	3500	–	–	–
B2	–	1500	1500	–
B3	8300	–	–	–
B4	–	800	–	–
B5	–	940	940	–
B6	–	1800	1800	–
B7	2200	2100	–	Kd [4]: 5300 nM; Kd [5]: 2200 nM; Kd [6]: 5300 nM
B8	6300	–	–	–
